In patent publication US9127040B2, “Regulation of sodium channels by PLUNC proteins” (The University of North Carolina at Chapel Hill, priority 2011, dated 2015):

Molecular target: T1, αβγENaC (Rattus norvegicus, UniProt P37089+P37090+P37091, S518C)
T1 construct: expressed in transfected cells; host or cells: Xenopus laevis oocytes (cRNA injection)
T1 sequence (P37089 1-698): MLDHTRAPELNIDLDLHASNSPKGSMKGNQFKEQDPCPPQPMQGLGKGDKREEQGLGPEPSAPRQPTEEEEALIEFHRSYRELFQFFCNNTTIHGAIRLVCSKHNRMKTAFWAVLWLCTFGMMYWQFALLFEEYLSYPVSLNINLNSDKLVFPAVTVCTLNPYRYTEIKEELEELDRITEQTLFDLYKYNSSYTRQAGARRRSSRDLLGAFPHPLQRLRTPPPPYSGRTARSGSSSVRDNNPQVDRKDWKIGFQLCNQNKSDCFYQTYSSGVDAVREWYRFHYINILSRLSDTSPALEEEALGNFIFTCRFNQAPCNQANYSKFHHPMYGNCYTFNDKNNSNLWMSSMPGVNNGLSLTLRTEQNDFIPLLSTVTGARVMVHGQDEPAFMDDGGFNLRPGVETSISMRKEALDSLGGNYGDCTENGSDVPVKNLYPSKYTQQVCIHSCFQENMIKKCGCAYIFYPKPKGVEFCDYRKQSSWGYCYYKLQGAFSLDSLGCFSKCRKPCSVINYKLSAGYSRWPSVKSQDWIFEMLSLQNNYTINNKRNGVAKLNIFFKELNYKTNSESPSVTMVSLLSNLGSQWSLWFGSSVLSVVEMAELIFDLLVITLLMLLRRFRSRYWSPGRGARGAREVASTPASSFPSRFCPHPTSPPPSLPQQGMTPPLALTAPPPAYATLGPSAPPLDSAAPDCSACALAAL
T1 sequence (P37090 1-638 S518C): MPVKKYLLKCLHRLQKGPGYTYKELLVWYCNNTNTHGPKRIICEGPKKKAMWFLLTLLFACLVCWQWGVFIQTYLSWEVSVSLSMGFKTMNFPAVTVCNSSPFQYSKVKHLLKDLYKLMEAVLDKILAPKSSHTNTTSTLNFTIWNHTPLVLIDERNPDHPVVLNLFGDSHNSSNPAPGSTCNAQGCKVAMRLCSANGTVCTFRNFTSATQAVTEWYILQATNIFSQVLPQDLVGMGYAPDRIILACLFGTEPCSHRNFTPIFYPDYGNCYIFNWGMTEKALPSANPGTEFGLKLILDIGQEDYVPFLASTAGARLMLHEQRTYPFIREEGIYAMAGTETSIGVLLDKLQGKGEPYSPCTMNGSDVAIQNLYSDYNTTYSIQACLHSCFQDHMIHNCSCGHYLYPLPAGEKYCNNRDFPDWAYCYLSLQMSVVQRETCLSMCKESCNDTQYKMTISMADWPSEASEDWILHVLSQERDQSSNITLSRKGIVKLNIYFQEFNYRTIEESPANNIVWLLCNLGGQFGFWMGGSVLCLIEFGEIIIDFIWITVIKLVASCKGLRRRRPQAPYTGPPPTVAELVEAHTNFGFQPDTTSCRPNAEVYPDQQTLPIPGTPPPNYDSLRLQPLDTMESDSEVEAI
T1 sequence (P37091 1-650): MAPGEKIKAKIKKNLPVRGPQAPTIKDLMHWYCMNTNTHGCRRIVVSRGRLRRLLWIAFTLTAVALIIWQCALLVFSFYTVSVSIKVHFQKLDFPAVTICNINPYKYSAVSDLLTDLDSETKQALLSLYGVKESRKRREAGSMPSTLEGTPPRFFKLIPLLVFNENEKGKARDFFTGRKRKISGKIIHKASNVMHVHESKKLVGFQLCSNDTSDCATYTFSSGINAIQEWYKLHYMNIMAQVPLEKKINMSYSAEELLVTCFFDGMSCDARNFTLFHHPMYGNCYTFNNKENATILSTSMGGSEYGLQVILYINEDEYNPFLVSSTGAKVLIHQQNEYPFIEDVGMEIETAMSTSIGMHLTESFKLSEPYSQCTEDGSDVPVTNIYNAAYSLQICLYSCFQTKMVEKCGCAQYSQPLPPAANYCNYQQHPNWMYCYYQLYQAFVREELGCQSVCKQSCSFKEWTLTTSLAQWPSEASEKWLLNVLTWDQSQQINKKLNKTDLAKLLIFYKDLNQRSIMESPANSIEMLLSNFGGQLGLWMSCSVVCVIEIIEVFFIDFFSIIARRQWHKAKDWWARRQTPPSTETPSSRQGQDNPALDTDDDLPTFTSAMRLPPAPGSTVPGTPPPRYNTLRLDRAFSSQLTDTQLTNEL
Test: Amiloride-sensitive whole cell current, two electrode voltage clamp, Xenopus laevis oocytes expressing αβγENaC
Format: cell-based
Details: Po increased to 1.0 by MTSET; SPLUNC1 coexpressed

B1: SPLUNC1: human SPLUNC1 (SEQ ID NO:1), 256 amino acid secreted PLUNC family protein; rSPLUNC1 is the purified V5/6His-tagged recombinant form (protein, listed as Homo sapiens)
chain: MFQTGGLIVFYGLLAQTMAQFGGLPVPLDQTLPLNVNPALPLSPTGLAGSLTNALSNGLLSGGLLGILENLPLLDILKPGGGTSGGLLGGLLGKVTSVIPGLNNIIDIKVTDPQLLELGLVQSPDGHRLYVTIPLGIKLQVNTPLVGASLLRLAVKLDITAEILAVRDKQERIHLVLGDCTHSPGSLQISLLDGLGPLPIQGLLDSLTGILNKVLPELVQGNVCPLVNEVLRGLDITLVHDIVNMLIHGLQFVIKV
modifications: V5/6His tag in recombinant form
notes: rSPLUNC1 is the purified V5/6His-tagged recombinant form
overall current of ENaC containing βS518C mutant after MTSET: still reduced
